Reference: patent US8586570B2, “Sox-based kinase sensor” (Massachusetts Institute of Technology, priority 2006, dated 2013)
Like-named read-outs stand apart in the source and are kept apart here.

Experiments:
[1] = molecular target: T1, PKCα (Homo sapiens, UniProt P17252); settings: optimal PKCα peptide substrate selected from the literature; cited from earlier work
[2] = Fluorescence increase, phosphopeptide vs unphosphorylated peptide at 485 nm; type: physicochemical; settings: phosphopeptide / unphosphorylated peptide intensity at 485 nm, generally 10 mM Mg2+
Description: (§1) Fluorescence experiments were performed on a Fluoromax 3 from Jobin Yvon. 5 nm emission and excitation slit widths were used. For all experiments, an excitation wavelength of 360 nm was used. Enzyme assays were performed by monitoring emission at 485 nm.
After peptide characterization, emission spectra were obtained for unphosphorylated and phosphorylated peptides under appropriate conditions. The spectra were generally acquired in the presence of 10 mM Mg^2+(although lower Mg^2+concentrations can and have been used as well) and either 0, 0.1 or 1 mM ATP in a preselected buffer (usually 20 mM HEPES, pH 7.4). Relying on the emission spectra the fold fluorescence differences were measured by dividing the fluorescence intensity of the phosphopeptide by the fluorescence intensity of its unphosphorylated counterpart at 485 nm. FIG. 2 depicts the fluorescence spectra of the phosphorylated and unphosphorylated peptides in the appropriate assay mixture: (A) emissions scans of PKCβI-1 (10 μM), 10 mM Mg(II), 3×; (B) emissions scans of PKCβI-1 (10 μM), 10 mM Mg(II), 0 mM ATP, 3×.; (C) fluorescence difference for PKCβI-1 (10 μM), 10 mM Mg(II), 3×; (D) fluorescence increase for PKCβI-1 (10 μM) at 10 mM Mg (II).

[3] = molecular target: T1, PKCα; test: Kinetic parameters of the peptides with PKCα (continuous fluorescence assay); type: biochemical; settings: for Km / Vmax: with PKCα
Excerpt: To solve for enzyme kinetic parameters for this reaction, determination of the initial rate of product formation from the increase in fluorescence intensity is necessary. With this sensor, a correction for the decrease in fluorescence intensity due to the starting material being consumed is needed to determine the rate of product formation from the initial slope. The fluorescence intensity at any given point can be determined from the following equation: I(t)=fSs(t)+fPP(t) (1) where I(t) is the fluorescence intensity, S(t) is the amount of substrate in μM, P(t) is the amount of product in μM, fS is the fluorescence intensity per μM of substrate, and fP is fluorescence intensity per μM of product. The amount of substrate and product at any given point are related by: S(t)+P(t)=S0 (2) where S0 is the initial amount of substrate. Substitution of (2) into (1) followed by rearrangement, yields:
[formula] The initial slope of the reaction, dI(t)/dt, was measured within the first 5% of substrate turnover. The constants fP and fS were calculated from the slope of a line of fluorescence intensity versus concentration of P and S, respectively. A linear fit of a Hanes plot ([S]/V vs. […]) was used to find Km and Vmax.
For in vitro applications, the concentration of kinase can range from about 0.5 nM to about 1 μM, typically not more than about 500 nM, and preferably not more than about 250 nM. The concentrations of sensor can vary, but usually ranges between about 0.01 μM to 0.1 mM. Adenosine 5′-triphosphate (ATP) is the preferred source of phosphate, in stock solutions of about 10-100 mM. Because most kinases have Km values for ATP in the range of about 10-150 μM, saturating concentrations of ATP are used to arrive at values of Km and Vmax for the substrates. For in vivo applications, when the sensor is internalized into a cell, sufficient kinases, Mg^2+ and phosphate sources exist in the cytosol. For in vivo sensing, a cellular internalization sequence can be included in the sensor design. Suitable cellular internalization sequences include Penetratins, HIV-Tat domains and poly-arginine sequences (Lindgren, M. et al. Trends Pharmacol. Sci. 2000, 21, 99-103; Wadia, J. S. et al. Curr Opin. Biotech. 2002, 13, 52-56; Carrigan, C. N. Analyt. Biochem. 2005, 341, 290-298).
For applications in which the kinase is dependent on cofactors, a source of cofactor is also included in the sample. For example, for PKC, sources of Ca^2+, phospholipid and diacylglycerol are needed.
as §1

[4] = test system: PKC isozymes present in cells; test: Use of sensor in cell lysates
Excerpt: In comparison, the chemosensors with the extended recognition domain as disclosed in the present invention for PKCα, PKCα-S9 and PKCα-S10, also have good biophysical properties (Table IV).

RRRKGS*FRRKA (RRRKGSFRRKA) [optimal PKCα peptide substrate selected from the literature]
Km [1]: 3.8 µM

Ac-Sox-P-G-(p)S F R R R-NH2 [PKCα-S1(P1), reference compound]
Fluorescence Increase [2]: 5.7 x
Km [3]: 8.6 ± 2.9 µM
Vmax [3]: 5.9 ± 1.9 µmol/min/mg
reactivity in cell lysates [4]: reactive toward many of the PKC isozymes

Ac-R R R-C(Sox)-G-(p)S F R R K A-NH2 [PKCα-S9(P9)]
Fluorescence Increase [2]: 3.5 x
selectivity for PKCα ([3]; as determined by kinetic parameters, compared with PKCα-S1): much more selective for PKCα
Km [3]: 0.093 ± 0.017 µM
Vmax [3]: 1.8 ± 0.12 µmol/min/mg
